Source: patent publication US7514397

The substances below were run against viral gp41 of HIV-1IIIB (HIV-1IIIB) (assay: cell-based or functional assay).

Row | Substance | Cell fusion (IC90) | HIV infectivity (IC90)
1 | M41, maltose binding protein fusion with the extracellular domain of HIV-1 gp41 (540-686) (from UniProt P03377 540-686) | > 50 µM | > 16 µM
2 | M41-P, M41 fusion protein with an Ile to Pro mutation at position 578 (from UniProt P0AEX9 27-392; P03377 540-686) | 0.083 µM | 0.066 µM
3 | M41-PΔ178, M41-P fusion protein from which the DP-178 region has been deleted (gp41 540-642, Ile578Pro) (from UniProt P03377 540-642) | > 50 µM | > 8 µM
